Data taken from patent publication EP2468767B1 (dated 2007).

Target: the molecule itself
Assay: gel filtration on Superdex 200 HR

B1: IR485 (human insulin receptor residues 1-485 with enterokinase site and c-myc tag) (receptor)
chain: HLYPGEVCPGMDIRNNLTRLHELENCSVIEGHLQILLMFKTRPEDFRDLSFPKLIMITDYLLLFRVYGLESLKDLFPNLTVIRGSRLFFNYALVIFEMVHLKELGLYNLMNITRGSVRIEKNNELCYLATIDWSRILDSVEDNYIVLNKDDNEECGDICPGTAKGKTNCPATVINGQFVERCWTHSHCQKVCPTICKSHGCTAEGLCCHSECLGNCSQPDDPTKCVACRNFYLDGRCVETCPPPYYHFQDWRCVNFSFCQDLHHKCKNSRRQGCHQYVIHNNKCIPECPSGYTMNSSNLLCTPCLGPCPKVCHLLEGEKTIDSVTSAQELRGCTVINGSLIINIRGGNNLAAELEANLGLIEEISGYLKIRRSYALVSLSFFRKLRLIRGETLEIGNYSFYALDNQNLRQLWDWSKHNLTITQGKLFFHYNPKLCLSEIHKMEEVSGTKGRQERNDIALKTNGDQASCENELLKFSYIRTSFDKISDDDDKEQKLISEEDLN
binding result: binds
